This note sets out measurements from patent publication US20240043505A1 (UNIVERSITY OF PITTSBURGH OF THE COMMONWEALTH SYSTEM OF …, published 2024).

The labels stand for the following.
B1: Nb90 (VHH)
VHH: HVQLVESGGGLVQAGGSLRLSCAVSGRTVSSYVMGWFRQAPGKEREFVAGIGRTGMTITADSVKGRFTISRDNAKNLVYLQMNSLKSEDTAVYWCAAGVRDFAPRIDSYDYWGQGTQVTVSS
B2: Nb96 (VHH)
VHH: HVQLVESGGGLVQAGDSLRLSCAASGRDFSSYAMGWFRQAPGKEREFVGVISSGDVGTFYEDSVKGRFTISRDDAKNTVDLQMNSLKPEDTAVYYCAAALYVTSTRGSYAYWGQGTQVTVSS
B3: Nb82 (VHH)
VHH: DVQLVESGGGLVQAGGSLGLSCAASGSIFRLTAMGWYRQAPGKQRDLVTTITSAGIPHYADSVKGRFTISRDNAKNTVYLQMNGLKPEDTAVYYCYANTLNSQLLPRAYWGQGTQVTVSS
B4: Nb99 (VHH)
VHH: QVQLVESGGGLVQTGGSLRLSCAASGSTRSIWYSGWYRQAPGKQRELVASLTSGGTTYYPDSMKGRFTISGSSGLNMVYLQMNSLRPEDTAVYSCNVRTGSGVYWGQGTQVTVSS
B5: Nb76 (VHH)
VHH: DVQLVESGGGLVQAGGSLRLSCAVSGRTFSISTMGWFRQAPGKERLFVAGITWHDGSTNYADSVKGRFTISRDNAKNTVYLQMNSLKPEDTALYYCAARKSINYVQEYDYWGRGTQVTVSS
B6: Nb83 (VHH)
VHH: HVQLVESGGGLVQPGGSLRLSCAASGRSFNSYLMGWFRQAPGKEREFVAWISGSPHDIIRYRDSVKDRFTISRDNAKNTVYLQMNSLKPVDTAVYYCAVGSLRVGSFSPDYWGQGTQVTVSS
B7: Nb97 (VHH)
VHH: HVQLVESGGGLVQAGGSLRLSCAAPGRTFSTSAMGWFRQAPGKEREFVAAIDWSNTNIHYADTVKGRFTISTDTAKNTVYLQMNNLKPEDTAVYYCAQGGWGLTQPISVDYWGKGTQVTVSS
B8: Nb68 (VHH)
VHH: QVQLVESGGGLVQAGGSLRLSCAASGGTLRSYNMGWFRQGPGKEREFVAAISWTGLGTYYGDSVKGRFTISRDVIKNTLYLQMDSLKPEDTAIYYCAADSSTSRLHSAGSDYRYWGQGTQVTVSS
B9: Nb92 (VHH)
VHH: HVQLVESGGGLVQAGGSLRLSCAASGRTFSAYGMGWFRQAPGKEREFVAGIARSGSEYYGDSVKGRFTISRDNAKNTVYLQMASLKAEDTGVYYCAADPTILYHALSQRTQNYRYWGPGTQVTVSS
B10: Nb64 (VHH)
VHH: QVQLVESGGGLVQAGGSLRLSCAVSGRTFSIAGMGWFRQAPGKDREFLGGITWNDGTTWYADSVKGRFTISRDNAKNMLSLRMNSLKPEDTAVYYCAAGPRLGSTPRAYDYWGQGTQVTVSS
B11: Nb102 (VHH)
VHH: QVQLVESGGGLVQAGGSLRLSCAASGRTFSNSHMGWFRQAPGKEREFVAVISRSGGSTLYADSVKGRFTISRDNAKNTVYLQMNSLKPEDTAVYYCAASRTAGLTSNRSLYDYWGRGTQVTVSS
B12: Nb91 (VHH)
VHH: HVQLVESGGGLVQPGGSLRLSCAASGLTLNDYAIGWFRQAPGKEREGVSCISSSDGTTYYADSVKGRFTISRDNAKNTVYLQMNSLKPEDTAVYYCATDIAPFYCSWPLRTRLVEYWGQGTQVTVSS
B13: Nb6 (VHH)
VHH: HVQLVESGGGLVQAGGSLRLSCAASGRTFSTHATGWFRQAPGKEREFLATSVWLDDISRDSTYYAESVKGRFSISRDNAKDTVYLQMNSLKPEDTAVYYCAVKQRVGPGIMSAPTYDYWGQGTQVTVSS
B14: Nb94 (VHH)
VHH: QVQLVESGGGLVQAGGSLRLSCTASGGTFRSFTMAWFRQAPGKEREFVATLSWTGVGTYYADSVKGRFTISRDIAKNTVYLEMNSLIPEDTAVYYCAASPYTYSLLSRTGDYGYWGQGTQVTVSS
B15: Nb11 (VHH)
VHH: HVQLVESGGGLVQAGGSLRLSCAVSGASAERVGWFRRAPGKEREFVAAIGANGGSTNYLDSVKGRFTISRDNAKNTVYLQMNSLKPQDTAVYYCAARNLETFDYTYWGRGTQVTVSS
B16: Nb78 (VHH)
VHH: QVQLVESGGGLVQAGGSLRLSCAISGASANRVGWFRRAPGKEREFVAAIGASGGMTNYLDSVKGRFTISRDNAKNTVYLQMNSLKPQDTAVYYCAARNIETAEYTYWGQGTQVTVSS
B17: Nb74 (VHH)
VHH: HVQLVESGGGLVQAGGSLRLSCAASGRTFSSHAMAWFRQAPGKEREFVAGISWSGPYYVDSVKGRFTISTDNAKNTVYLQMNSLTPEDTAVYYCASSRGPNLYPHIGDVEYWGQGTQVTVSS
B18: Nb9 (VHH)
VHH: HVQLVESGGGLVQTGGSLRLSCAFSGYTFSTFPTAWFRQAPGKEREFVAGIRWNGGSRDYTEYADFVKGRFTISRDNAKNMIYLQMISLKPEDTALYYCAASHGVVDGTSVNGYRYWGQGTQVTVSS
B19: Nb63 (VHH)
VHH: QVQLVESGGGLVQAGGSLRLSCVASGSGFEPNAMGWYRQAPGKQRELVAGITSGGNANYADSVKGRFTISRDNVKNTVYLQMNSLKPEDTAVYYCQGPACSGSGCRNYWGQGTQVTVSS
B20: Nb66 (VHH)
VHH: HVQLVESGGGLVQAGGSLRLSCAASGRTFSVNSIAWFRQAPGKEREFVATINWSGGDIYYADSVKGRFTISRDNGKNTVYLQMNSLKPTDTAVYYCAAARFYGRSIAQDYDSWGQGTQVTVSS
B21: Nb62 (VHH)
VHH: HVQLVESGGGLVQAGGSLRLTCAASGRTFSSSTMDMGWFRQAPGKEREFVAVDAWNDGRTYYADSVKGRFTISRDNAKNTLYLQMNSLKPGDTAVYYCHAVDVSVGGDYWGQGTQVTVSS
B22: Nb80 (VHH)
VHH: HVQLVESGGGLVQPGGSLRLSCAASGNFFLINVMSWWRQAPGNEHELHELVATITSDGRTNYGDAVQGRFTISRDNAKNTLYLQMNSLKPEDTAVYYCYAQGQGNREYWGQGTQVTVSS
B23: Nb93 (VHH)
VHH: EVQLVESGGGLVQPGGSLRLSCAASGFTFSSYAMSWVRQAPGKGREWVAGITPGSGTFYADSVKGRFTISRDNAKNTLSLEINSLKPEDTALYYCAKCRQEFSWDFSSRDPDDFDYWGQGTQVTVSS

For the assay, the target named is SARS-CoV-2 spike receptor-binding domain (RBD) (SARS-CoV-2, UniProt P0DTC2 319-541). Nature of the assay: indirect ELISA on coated RBD ('ELISA affinity').
The molecule B1 returned an IC50 of 4.03 nM. In turn, B2 had a concentration for half-maximal inhibition (IC50) of 0.04 nM. Then B3, with 0.86 nM; and B4, with 0.35 nM.

In the case of B5, the IC50 is 0.17 nM. Then B6, with 1.51 nM; and B7, with 0.32 nM. B8 had a concentration for half-maximal inhibition (IC50) of 6.11 nM. For B9, the 50% inhibitory concentration (IC50) is 4.92 nM. Then B10, with 0.45 nM. Then B11, with 28.4 nM; and B12, with 1.28 nM. Then B13, with 0.57 nM; and B14, with 0.5 nM. B15 had an IC50 of 0.39 nM. This IC50 and that of the molecule before are within 1.5-fold of each other. In the case of B16 it was 0.61 nM. In the case of B17 it was 67.1 nM; in that of B18, 0.89 nM. B19 showed a half-maximal inhibitory concentration (IC50) of 0.84 nM. In the case of B20 it was 0.33 nM.

With B21, the IC50 is 85.7 nM.

B22 had a half-inhibitory concentration (IC50) of 5.09 nM. B23 came in with a half-maximal inhibitory concentration (IC50) of 1.15 nM. This IC50 lies about 4.4-fold lower than the previous one.
